This passage reports Kd, dH and stoichiometry N results from publication PMC3839849.

Holding throughout (assay): ITC
For assay [1], the target named is CaV1.2 IQ domain (Homo sapiens) (UniProt Q13936).
The target in assay [2] is CaV1.2 IQ domain TripleA mutant (CaV1.2 F1618A, F1619A, Y1622A) (human).
Assay [3] has the same target. The source holds these as a separate data set.
The next assay concerns the target CaV1.2 IQ domain (human).

Read-outs that look alike come from different tables or passages of the source.

CaBP1 N-lobe, Q9NZU7: the Kd (commonly the free concentration of one partner at which half of the binding sites on the other are occupied at equilibrium, for simple one-to-one binding) in assay [1] was 1100 nM.
“calcium binding protein 1 (CaBP1) Δ2–15 (natural protein)” yielded a Kd in assay [2] of 221 nM. In addition, in assay [3], the Kd worked out at 10.9 nM; the dH is -4.77 kcal/mol; the stoichiometry N (usually the number of molecules, sites or subunits per partner or assembly) was 0.89.
Substance “calmodulin (CaM), full-length (from UniProt P0DP23 1-149) (natural protein)” registered a dH in assay [3] of -10.6 kcal/mol. In the assay with CaV1.2 IQ domain (human), the Kd was found to be 0.00085 nM and the dH is -5.74 kcal/mol.
